T1: GST-Cdc25C, P30307
T1 chain: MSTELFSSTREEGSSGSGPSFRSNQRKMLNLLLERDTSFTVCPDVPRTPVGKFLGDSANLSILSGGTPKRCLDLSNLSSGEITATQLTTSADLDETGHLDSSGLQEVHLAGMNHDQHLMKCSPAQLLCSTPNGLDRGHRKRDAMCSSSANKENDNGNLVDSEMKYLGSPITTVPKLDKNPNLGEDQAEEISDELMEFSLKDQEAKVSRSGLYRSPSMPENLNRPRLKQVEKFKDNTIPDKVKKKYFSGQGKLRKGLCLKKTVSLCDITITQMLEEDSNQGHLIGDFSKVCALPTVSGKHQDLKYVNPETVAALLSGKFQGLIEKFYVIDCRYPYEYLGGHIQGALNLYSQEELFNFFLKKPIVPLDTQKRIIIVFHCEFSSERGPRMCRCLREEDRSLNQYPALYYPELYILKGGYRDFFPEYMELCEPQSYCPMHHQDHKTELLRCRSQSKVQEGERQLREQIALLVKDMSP

B1: 6his-Chk1 (protein)
chain: MAVPFVEDWDLVQTLGEGAYGEVQLAVNRVTEEAVAVKIVDMKRAVDCPENIKKEICINKMLNHENVVKFYGHRREGNIQYLFLEYCSGGELFDRIEPDIGMPEPDAQRFFHQLMAGVVYLHGIGITHRDIKPENLLLDERDNLKISDFGLATVFRYNNRERLLNKMCGTLPYVAPELLKRREFHAEPVDVWSCGIVLTAMLAGELPWDQPSDSCQEYSDWKEKKTYLNPWKKIDSAPLALLHKILVENPSARITIPDIKKDRWYNKPLKKGAKRPRVTSGGVSESPSGFSKHIQSNLDFSPVNSASSEENVKYSSSQPEPRTGLSLWDTSPSYIDKLVQGISFSQPTCPDHMLLNSQLLGTPGSSQNPWQRLVKRMTRFFTKLDADKSYQCLKETCEKLGYQWKKSCMNQVTISTTDRRNNKLIFKVNLLEMDDKILVDFRLSKGDGLEFKRHFLKIKGKLIDIVSSQKIWLPAT
B2: GST-Cdc25C (protein)
chain: MSTELFSSTREEGSSGSGPSFRSNQRKMLNLLLERDTSFTVCPDVPRTPVGKFLGDSANLSILSGGTPKRCLDLSNLSSGEITATQLTTSADLDETGHLDSSGLQEVHLAGMNHDQHLMKCSPAQLLCSTPNGLDRGHRKRDAMCSSSANKENDNGNLVDSEMKYLGSPITTVPKLDKNPNLGEDQAEEISDELMEFSLKDQEAKVSRSGLYRSPSMPENLNRPRLKQVEKFKDNTIPDKVKKKYFSGQGKLRKGLCLKKTVSLCDITITQMLEEDSNQGHLIGDFSKVCALPTVSGKHQDLKYVNPETVAALLSGKFQGLIEKFYVIDCRYPYEYLGGHIQGALNLYSQEELFNFFLKKPIVPLDTQKRIIIVFHCEFSSERGPRMCRCLREEDRSLNQYPALYYPELYILKGGYRDFFPEYMELCEPQSYCPMHHQDHKTELLRCRSQSKVQEGERQLREQIALLVKDMSP

Legend:
[1] = molecular target: T1, GST-Cdc25C, P30307
[2] = molecular target: 6his-Cdc2, P06493
6his-Cdc2, P06493, sequence (P06493 whole entry, looked up): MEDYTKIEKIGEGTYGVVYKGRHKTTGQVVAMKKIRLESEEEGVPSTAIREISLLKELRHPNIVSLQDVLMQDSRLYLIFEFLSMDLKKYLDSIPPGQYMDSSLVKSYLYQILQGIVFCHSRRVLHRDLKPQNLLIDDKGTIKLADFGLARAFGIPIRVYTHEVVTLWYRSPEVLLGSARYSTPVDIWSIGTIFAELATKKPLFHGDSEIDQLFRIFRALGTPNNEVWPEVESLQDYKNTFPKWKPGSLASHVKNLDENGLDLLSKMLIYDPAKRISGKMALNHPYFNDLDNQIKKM

Protein	GST-Cdc25 phosphatase activity (loss of slower migrating phosphorylated forms of Cdc2 on gel) [1]	phosphorylation of GST-Cdc25 (32P ATP, SDS-PAGE, autoradiography) [1]	dephosphorylation of Cdc2 (gel-mobility analysis) [2]
B1	Prior phosphorylation of GST-Cdc25 by 6his-Chk1 leads to a dosedependent reduction in GST-Cdc25 activity	GST-Cdc25 was phosphorylated by 6his-Chk1 and by 6his-hCDS1	
B2			GST-Cdc25 catalyses a reduction in the slower migrating phosphorylated forms of Cdc2
